Source: US7033999B2, “Nitrosated and nitrosylated heme proteins” (Brigham and Women's Hospital, priority 1991, dated 2006)
Where two headings read alike, the source gives them in different places.

What was measured:
[1] = target: T1, fibrinogen (Homo sapiens, UniProt P02671+P02675+P02679); assay: Binding of t-PA and S—NO-t-PA to fibrinogen-coated wells (ELISA)
T1 construct: purchased Enzyme Research Laboratories, South Bend, Ind
T1 sequence (P02671 20-629 limits assumed): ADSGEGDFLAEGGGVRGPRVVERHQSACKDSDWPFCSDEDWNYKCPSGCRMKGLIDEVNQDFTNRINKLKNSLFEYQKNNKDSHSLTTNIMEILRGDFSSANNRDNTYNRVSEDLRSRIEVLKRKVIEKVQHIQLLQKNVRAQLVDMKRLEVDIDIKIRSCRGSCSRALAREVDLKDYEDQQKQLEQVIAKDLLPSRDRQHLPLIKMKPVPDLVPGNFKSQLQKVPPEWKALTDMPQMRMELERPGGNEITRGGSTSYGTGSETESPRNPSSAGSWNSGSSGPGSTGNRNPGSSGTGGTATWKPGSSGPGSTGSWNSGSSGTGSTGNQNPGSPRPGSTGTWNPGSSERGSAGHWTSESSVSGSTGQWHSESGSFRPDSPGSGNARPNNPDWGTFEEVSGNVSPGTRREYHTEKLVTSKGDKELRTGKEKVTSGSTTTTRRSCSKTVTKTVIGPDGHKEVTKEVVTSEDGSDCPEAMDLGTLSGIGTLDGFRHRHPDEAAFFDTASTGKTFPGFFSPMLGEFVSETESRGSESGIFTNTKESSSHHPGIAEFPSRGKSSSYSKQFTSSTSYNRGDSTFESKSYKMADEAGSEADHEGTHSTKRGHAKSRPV
T1 sequence (P02675 31-491): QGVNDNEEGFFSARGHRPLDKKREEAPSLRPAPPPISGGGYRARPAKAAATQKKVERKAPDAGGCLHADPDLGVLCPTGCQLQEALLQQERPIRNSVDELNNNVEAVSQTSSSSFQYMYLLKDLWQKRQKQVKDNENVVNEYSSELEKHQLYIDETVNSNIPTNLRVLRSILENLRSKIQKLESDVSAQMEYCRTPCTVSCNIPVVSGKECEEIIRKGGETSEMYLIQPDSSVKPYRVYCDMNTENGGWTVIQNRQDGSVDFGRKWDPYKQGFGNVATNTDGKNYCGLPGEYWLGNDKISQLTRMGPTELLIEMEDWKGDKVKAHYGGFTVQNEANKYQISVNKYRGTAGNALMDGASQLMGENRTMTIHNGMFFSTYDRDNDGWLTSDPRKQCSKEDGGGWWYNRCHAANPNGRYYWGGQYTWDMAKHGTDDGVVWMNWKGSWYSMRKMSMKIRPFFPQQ
T1 sequence (P02679 27-433 limits assumed): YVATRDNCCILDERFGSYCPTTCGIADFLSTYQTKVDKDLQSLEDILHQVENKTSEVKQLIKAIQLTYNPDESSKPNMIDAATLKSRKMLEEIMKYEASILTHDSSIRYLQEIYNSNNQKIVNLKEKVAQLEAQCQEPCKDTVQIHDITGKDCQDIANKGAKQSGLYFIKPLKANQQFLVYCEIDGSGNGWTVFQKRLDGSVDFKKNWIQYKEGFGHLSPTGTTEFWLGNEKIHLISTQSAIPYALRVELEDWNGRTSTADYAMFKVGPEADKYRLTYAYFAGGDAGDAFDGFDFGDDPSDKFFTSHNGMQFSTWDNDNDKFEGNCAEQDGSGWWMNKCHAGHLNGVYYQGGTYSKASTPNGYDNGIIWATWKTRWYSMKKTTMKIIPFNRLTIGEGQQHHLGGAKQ
Protocol: The binding of t-PA and S——NO-t-PA to fibrinogen was measured using polystyrene microliter wells (flat-bottom, high binding 96-well EIA plates, cat. #3590, Costar, Cambridge, Mass.). Wells were coated with fibrinogen (0.08 ug/ul) and the remaining binding sites with 2% bovine serum albumin. Quantification of t-PA binding was determined using a Horse-Radish Peroxidase linked sheep antimurine antibody in a colorimetric assay in the presence of O-phenylenediamine, 0.014% H2O2. Color change was measured spectrophotometrically with a Dynatech MR500 Card Reader (Dynatech, Chantilly, Va.) at 490 nm.
Binding of t-PA is reversible and specific, and saturates at 1500–3000 nM; at saturation, 18 ng of t-PA are bound per well ([…] moles t-PA per mole of fibrinogen) with an estimated KDin the range of 15–650 nM. Binding of t-PA and S—NO-t-PA was quantified by ELISA over the concentration range of 150–1500 nM using a mixture containing six murine monoclonal anti-t-PA antibodies.

[2] = tested on: gel-filtered platelets; assay: Platelet aggregation (nephelometric aggregometry); format: cell-based, human; conditions: 5 μM ADP
Protocol: (§1) Venous blood, anticoagulated with 1-mM trisodium citrate, was obtained from volunteers who had not consumed acetylsalicylic acid for at least ten days. Platelet-rich plasma (PRP) was prepared by centrifugation at 150 g for ten minutes at 25° C. Platelet counts were determined with a Coulter counter (model ZM; Coulter Electronics, Hialeah, Fla.).
(§2) Platelets were gel-filtered on a 4× 10 cm column of Sepharose 2B in Tyrode's Hepes buffer as described previously (Hawiger et al., Nature 2831:195–198 (1980), herein incorporated by reference). Platelets were typically suspended at a concentration of 1.5×10^8/ml and were used within 30 minutes of preparation. Platelet aggregation was monitored using a standard nephelometric technique (Born, et al., J. Physiol. 168:178–195 (1963), herein incorporated by reference), in which 0.3-ml aliquots of gel-filtered platelets were incubated at 37° C. and stirred at 1000 rpm in a PAP-4 aggregometer (Biodata, Hatboro, Pa.). Gel-filtered platelets were preincubated with t-PA or S—NO-t-PA for up to 45 minutes and aggregations induced with 5 μM ADP or 0.025 U/ml thrombin.
Aggregations were quantified by measuring the maximal rate or extent of light transmittance and expressed as a normalized value relative to control aggregations.
The effect of S-nitroso-BSA on platelet aggregation was studied, using a gel-filtered platelet preparation, as previously described (Hawiger et al., Nature 2831:195 (1980)) and suspended at 150,000 platelets/ul in HEPES buffer, pH 7.35. S—NO-BSA was incubated with platelets for ten minutes at 37° C. in a PAP-4 aggregometer (BioData, Hatboro, Pa.), after which aggregations were induced with 5 μM ADP. Aggregations were quantified by measuring the extent of change of light transmittance and expressed as a normalized value relative to control aggregations.

[3] = tested on: gel-filtered platelets; assay: Intracellular platelet cyclic GMP (radioimmunoassay); format: cell-based, human
Protocol: as §1, §2
The antiplatelet actions of S-nitrosothiols are mediated by cyclic GMP. Measurements of cGMP were performed by radioimmunoassay. Gel-filtered platelets were pre-incubated for 180 seconds with S—NO-t-PA (9 μM), and related controls. […]

| Substance | Kd ([1]; Scatchard analysis, read-out: estimated apparent DD for surface-bound fibrinogen) [nM] | binding isotherm compared with t-PA ([1]; two-way ANOVA) | effect on platelet aggregation, synthesized with authentic EDRF ([2]; 333 nM, preincubated ten minutes) | inhibition in rate and extent of aggregation ([2]; 1.4 μM, mean ±S.D., n=4) [%] | increase in intracellular cyclic GMP above basal levels ([3]; 9 μM, 180 seconds, basal in the presence of t-PA) [%] | elevation in platelet cGMP after preincubation with methylene blue ([3]; methylene blue 10 μM for ten minutes) | moles t-PA per mole of fibrinogen at saturation ([1]; at saturation) | t-PA bound per well at saturation ([1]; at saturation) [ng] | concentration at which binding saturates ([1]; fibrinogen-coated wells) [nM] | Kd ([1]; fibrinogen-coated wells, read-out: estimated KD of binding to fibrinogen) [nM] |
| --- | --- | --- | --- | --- | --- | --- | --- | --- | --- | --- |
| S—NO-t-PA: derived from the nitrosylation of tissue-type plasminogen activator (t-PA) | 450 | not significantly different | inhibition of platelet aggregation | 50±16 | 85 | entirely prevented | – | – | – | – |
| t-PA: tissue-type plasminogen activator, provided by Genentech | – | – | – | – | – | – | 0105 moles t-PA per mole of fibrinogen | 18 | 1500 to 3000 | 15 to 650 |
